Results published in the DeepSol protein solubility set.

Assay: soluble on expression in E. coli; label from the status in PepcDB or PDB records

Sequence | soluble on expression in E. coli
MILDYIYHSGFAIEAEGVTLIIDYYKDSSETELNKGIVHDRLLQRPGKLYVLASHFHPDHFNREVLTWKEQRPDIIYIFSKDILKHHRAQKEDAIYINKGEEYEDDMLRIQAFGSTDVGISFLIHLQGKSIFHAGDLNNWHWSEESTEQEIRKAEGDFLAEIKYLQAAVPTIDLVMFPVDRRMGKDYMKGAQQFIERIKTTIFVPMHFSEDYEGGNAFRSIAEAGGCRFITITHRGESFDI | not soluble
MILEKAREILEEHQLCNHCLGRLFGKLGKGTNEERGRAIRLLLSMETGKEYKEPEKCELCGGVFNNLDKFAELCIKAAEGIEFETFWVGSRFPEEIEKKEEEIWRKFRVVSGEKITKEFNRELGKVIAVRYGKTPVKERPDVVFIVEPFSEKVELQVNPIYVAGRYRKLIRGIPQTPAPGFKESIATIICRAFKKHFHGKCIFKGAGREDVDVRMLGNGRPFVVEIKRPRKRKVNLKDIEEEINQSGKVEVLNLRFITPEEAERILTTRHRKVYEAIVYVKDGITKEEVEKVVKSLKNAEIKQRTPRRVLNSRADLVRVRKVYDVKGELIDDKHFKLRLVTDGGLYIKELISGDRGRTTPSVSEILGKEAWCEILDVLEVLDDVEGDNLEHHHHHH | not soluble
MILFDYKLLAALAAVVEQGGFERAAQALGLSQSAVSQRIKLLEARVGQPVLVRETPPHPTDLGRRLLNHVQQVRLLEGDLQRWVPNLDEGGAPERLRIALNADSLATWWAAAVGDFCAERRVLLDLVVEDQEVGLKRMRAGEVAGCVCGSARPVAGARSLLLGAMRYRGLASPDFIARHFPRGVEAAALAGVPAIVFGPDDLLQHRFLKDLGVEGGFIHHLCPSSEGFVRLTAGGLGWGLVPERQVQGELARGELVELLPGQVIDVPLYWHYWRNGGELLASLTEHLLARAGDGLVRVSG | not soluble
MILFGTGGIRGVMRKGEFDEETVKRASLSTALWLKEKGQKSVVIAYDTRKNSKEFAELAGRVFAGEGIEAYVFPEPTPTPVLSFAVRYMKTGGGVVITASHNPPEYNGYKVYTWDGVQAIPEYTNEITEIYKKVDLSHVKEGEIKFVPPEVKESYIKAVLEIVSNLPMKTDLDIAYSPLHGTGANYVPEVLKRLGFKVRLVEEQMKPDPNFSTVPTPNPEEDEALVLLNKKGATLGLATDPDCDRVGVVFKGRRLTGNQVGVLLTDFLLDHVKVENPLVIKTIVTTDMVRPICEEKGAFLEETPTGFKFIGHLIEEHTKKGDRNFVFGFEESCGYLAGNHARDKDGVVGSVLSAVAFSNYDPYEKLEELYQKYGYYMEKLINFKFEDVDRAVEIYRSLKNYDGIIDYSKGYGNVIPNETIAFVFEKSRIFVRPSGTEPKLKVYIHVRGDTREEAEELMKESESKIKEILKL | soluble
MILINKRAEKQDYQTILAIWEKSVIVTHDFLTAEDRQFYKEQIPLFLDNVELFLWFAGEEVIGFSGTSERELDMLFLDPVATGNGYGSQILGWLIENKRINLVDVNEQNENATRFYLKHGFVVSSRSDLDGFGKPYPILQLQLK | not soluble
MILREFCAENLTDLTRLDKAIISRVELCDNLAVGGTTPSYGVIKEANQYLHEKGISVAVMIRPRGGNFVYNDLELRIMEEDILRAVELESDALVLGILTSNNHIDTEAIEQLLPATQGLPLVFHMAFDVIPKSDQKKSIDQLVALGFTRILLHGSSNGEPIIENIKHIKALVEYANNRIEIMVGGGVTAENYQYICQETGVKQAHGTRITQMAGDPLEHHHHHH | soluble
MILSDKDIIDYVTSKRIIIKPFNKDFVGPCSYDVTLGDEFIIYDDEVYDLSKELNYKRIKIKNSILVCPLNYNLTEEKINYFKEKYNVDYVVEGGVLGTTNEYIELPNDISAQYQGRSSLGRVFLTSHQTAGWIDAGFKGKITLQIVAFDKPVILYKNQRIGQLIFSKLLSPADVGYSERKTSKYAYQKSVMPSLIHLDNHKKD | soluble
MILVFLDNMASIKDLNLIDEINDSSNLKLINDRLKLLFWTKNPEITDEENKKKYLDFLNEYWDTLRAYGAGDLELFPDKINYLTLILAANSKNHNIYIKKLAEKYAEKIPIEDGDSKINIWDFIDVAANSRNNDLHLERMILEGDTVLLNQKNQSIYNFEKIRLKLKNYVEKVRNAEMPKEIKDLLVKKSEEAFEGINIGYNIESGIKVSTKEYSGEIPEDWHPPCMREILNDILSGGSPSHYARRSFVVYRFVSQFDPNLRPIEEGIITNRSAQDIATEEQIERFLDEIINIFKSVGDFDVEKTKYYISHNIGYKVANHITHCEYCKNWRDDGGKGLGYYCRPDSTCSRKDIIHPLDYLCHNINRHVKKSELEHHHHHH | not soluble
MILVGDGEDLEPPDDFLRREVADSVLNLLGDYRFLTKGYFVSLHAEENGCEVFPPVKNALDAYRAPLFMNAVRKLGLETPEFSIRSEPKFERGVLLPLNPFSKNSAKVVKTSHQYAKAFKRLSMNRYPVVQVKSEKYDSFNLYLWRADKEEYNFIAEKIFKGLRIPLGKVLVDVTDGMAKPFYFMPVEKGEINLRLVFEVLYENCLLR | not soluble
MILVTGSSGQIGTELVPYLAEKYGKKNVIASDIVQRDTGGIKFITLDVSNRDEIDRAVEKYSIDAIFHLAGILSAKGEKDPALAYKVNMNGTYNILEAAKQHRVEKVVIPSTIGVFGPETPKNKVPSITITRPRTMYGVTKIAAELLGQYYYEKFGLDVRSLRYPGIISYKAEPTAGTTDYAVEIFYYAVKREKYKCYLAPNRALPMMYMPDALKALVDLYEADRDKLVLRNGYNVTAYTFTPSELYSKIKERIPEFEIEYKEDFRDKIAATWPESLDSSEASNEWGFSIEYDLDRTIDDMIDHISEKLGIEGKHAL | soluble
MIMNIFLIKEADLVEAAEIISASFKNYEVMRYLFNDSGNDHEAHITEFFLAFYQFGLANNWPCYGVRVNEQWVAVALGCNSSEQEIIKGSDDALTEFYKKISPQACCRIEQYDQQADAAHPSKAHFFIDSIGTHPDHQGKGYAKALILKFQELSKSDVHSTGVGLNTESDNNINFYQHLGYQVKAQQKIGSLTSWSLFRTDD | not soluble
MIMQEIFLCSISNVRSGDCKEDCAYCTQSSHHQGAIKRYKFKDEKVVLQEARALRQLGALGFCLVTSGRELDDEKCEYIAKLAKAINQEELGLHLIACCGRADLEQLEFLRDAGIHSYNHNLETSQNFFPKICSTHTWEERFITCENALRAGLGLCSGGIFGLNESWEDRIEMLRALASLSPHTTPINFFIKNPVLPIDAETLSADEALECVLLAKEFLPNARLMVAGGREVVFKDNDKKEAKLFEYGINAVVLGDYLTTKGKAPKKDIEKLLSYGLTMATSCHLEHHHHHH | not soluble
MINLPAEGHVNPTLSLVKAFTERGDHVHYITTEHFKGRIEDLGATVYTHPDLLKDISIDTETSYGLNSFFHVHVQTSLYILEITKQLCESINFDFVIYDIFGAGELVKEYLQIPGIVSSPIFLIPTEFLETLPFHPNAEIPFQPDEISEQLLYRMEHEFGVKPKNNLQFMHNKGDITLVYTSRYFQPNSDLFGENNIFIGPSISKRKTNVEFPLELLKGKKVIYISMGTLLEGLEPFFNTCIDTFSDFKGVVVMAIGDRNDRSKIKKAPDNFIIASYVLQSEILNEADVFITHGGMNSVHDAIYFNVPFVIIPHDKDQPMIAQRLTELEAAHRLLKEHVNVQSLKEAVTDVLLNEKYKHGIRKLKDSFLQCGGAKEAISVIKSLLNK | not soluble
MINMEKCLLEKYNSLLEFFKNKKVIVAYSGGVDSTLISKIASDATKTLAVTVDNGFFSENVIKKAEDCAKKYNIPQKTEKIDYLNEITSKNLENRCYNCKKRIAEELKKIKNELNYDIIVDGTIYDDIFEDRPGIKAFHEENIISPLSDLKFNKNDVFEISKYLKIDIPKKDTCMATRILSAPISKENMAKSNLAEEFIKSNFHIESYLRVRYIENIAIIELTKNESEKIFDNDSIERINTELKKIGFEKVVIDLNFK | not soluble
MIPFVWGICMPTLRNPQYRAFARRKLYRRQDGKCFYCHRDLTTKKTGELALTIEHRKAKMKGGTDDLKNLVAACWHCNHHRGEQMNATKQRKEAKALSRQRRMLARDCRSKADSQADGKAHEQLASKVEGNGANRTPSVHTARSEGLGLEHHHHHH | soluble
MIPKNIHLIFLRKDEPFPELFEKCKQEIQVNHPDWNIRLYNKDDAQDILNQDLPEYIEAYNAFYHNVQKADFLRLALVYLYGGFYMDLDMLSLKPLDELRKYNLVLGEEKIVCQAEQEALNLRYRLRIANYMFGGIPKHPFLHRIMDEMAERATIILKSQQEILDITGPGLLTDTYWDNYGMYTDITLLRNTDKRCRQPYHNEISCHFGDYAAHLHAGTWRTGILEHHHHHH | soluble
MIPMFKKKPLIGMVHLKPLPGSYHYNDNFDDIVDFAIKEAKKLEEAGFDAVMIENFGDAPFKKEADKITIASMAVIAKAIKEEVSLPLGINILRNDAIGAYSIAYVVKADFIRVNVLSGVAFTDQGIIEGKAYELAKLKKLLPSKIKVFADVHVKHAYHFIDFESSLLDTVERGLADAVIISGKRTGKEVDIEKLKLAKELVDVPVIVGSGTNYNNLRILWSYADGFIIGTWIKKDGKANNEIDIDRAKKIVNLANKLKMCLEHHHHHH | soluble
MIQITVVQIDNYGPWTVTPNPRRESDLQALQSRLYCDMNLQFGAHKGLAFYTRFDNIIAITNGIDLETHKRIQNSVKNRYPFTVSMAVASAETAYEAQKLATKTIQEYGSAQDDVRKEVLDVANEFVSNGYVQLAHVDINDITGKLTDLETAYDTYLSVQKTKLKLMEELKKYDSLGFFIGGDNFMCPCNGMNEKDFLCMFEDIKDSCGIELKAGIGIGKTAEDASNLADIGLEVIREGKTDSQVYTLKQ | not soluble
MIQKQHESKLEVGQTFPVTIKRLGINGEGVGYFKRQVVFIPGALPGEEVVAETTKIQRGFAEAKVKKVRKASPHRVKAPCPVYEECGGCQLQHLDYKEQLNQKRDIVVQAFEKYMKNSMEEKIRPTLGMENPWHYRNKSQLQVGRKDEKVITGLYKQNSHQLIDIAHCMIQHKATNEATKVVRRILEKLNVSIYNEKKQKGLVRTIVTRTAVQTGEVQVTLITTKEELPNKEQFIAEVQKQMPAVKSIMQNVNWRKTSVIFGDKTFKLAGKEVIQETLGDLSFELSARAFFQLNPEQTVVLYNEAKKAAALTGNEKIVDAYCGVGTIGLWLANDAAEVRGMDVIPEAIADARKNAKRHGFTNTKYEAGKAEQWLPKWVKEGWRPDVIVVDPPRTGCDDKLLETILKVKPKQVVYVSCNPSSLARDVQALMKSYEVEYVQPVDMFPHTAHVENVVKLTLK | not soluble
MIRFEQVSKAYLGGRQALQGVDFHLRPAEMAFLTGHSGAGKSTLLKLICGIERPSAGHIWFGGHDISRLKNREVPFLRRQIGMIFQDHHLLLDRTVYDNVAMPLIIAGASSEDIRRRVSAALDKVGLLDKAKNFPIQLSGGEQQRVGIARAVVNKPAVLLADEPTGNLDDALSEGILRLFEEFNRVGVTVLMATHDTSLIARRRYPILTLSQGRMSGAHHGE | not soluble
MIRIDSVTKRYPDGTVAVDRLSLEIPDRSITVLVGPSGCGKTTTLRMINRMVEPSEGTILLDGADITKQPVNTLRRSMGYVIQNAGLFQHRTIVDNIATVPRMLGWGKERARSRARELMERVGLDASLARRYPYQLSGGQQQRVGVARALASDPPVLLMDEPFSAVDPVVRKGLQEELLRIQDELGKTIVFVTHDIDEAIRLGTMVAVMRTGGHLAQFAPPAELLSAPADAFVEDFLGTDRGIRRLSFFPSAGLELLTTPVVAIDSTAEQIAARGTPDVPYLLVTDVDGKALGWSEPKDLTAGKVVPERLLPYGRPFESGKDSLRAALDCAVLSPTGWAVAVDGTGRVVGVVSQETIGEAIRGAHAERRKADLAGLEHHHHHH | not soluble
